Reference: patent publication US20230357323A1 (University of Washington, published 2023)
Changes are numbered by the printed parent chain.

T1: human IL-23R (hIL-23R), custom construct with C-terminal avi and his tags, biotinylated (human, UniProt Q5VWK5 24-355, limits assumed, enzymatically biotinylated via the avi-tag)
T1 construct: immobilized on streptavidin tips in BLI, labeled target in FACS; also called human IL-23 receptor
T1 sequence (looked up): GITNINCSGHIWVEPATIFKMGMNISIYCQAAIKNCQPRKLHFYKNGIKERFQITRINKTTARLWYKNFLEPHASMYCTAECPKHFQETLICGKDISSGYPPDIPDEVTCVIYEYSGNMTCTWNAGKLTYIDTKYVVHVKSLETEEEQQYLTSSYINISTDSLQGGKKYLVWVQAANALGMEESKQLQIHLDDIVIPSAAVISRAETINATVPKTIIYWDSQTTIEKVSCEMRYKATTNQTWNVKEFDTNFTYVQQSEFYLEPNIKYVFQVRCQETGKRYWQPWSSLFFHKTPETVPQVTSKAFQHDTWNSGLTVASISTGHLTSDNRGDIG

B1: A01 (designed binder)
chain: MEPEKYLREKVKKYYEGKLSQPEAVEEIRKYARKKGLEAWKLVWYFMELVKRDI
B2: A02 (designed binder)
chain: MEEEKYLRELVKKYYEQKLSHQEAVEIIRKYARKKGLEAWKLVWAFMQLVKRDI
B3: A04 (designed binder)
chain: B2 chain with L7V, Q17G, Q22P, I27E
B4: A05 (designed binder)
chain: B2 chain with L7V, L10Q, Q17K, H21Q, Q22P, V43I
B5: A06 (designed binder)
chain: B1 chain with L7V, K10L, G17K, K41M, Y45H, E48Q
B6: A07 (designed binder)
chain: B2 chain with Q17K, H21Q, Q22P
B7: A09 (designed binder)
chain: MEEEKYLRELVKKYYEQKLSQPEAVEIIRKYARKKGEEAWYLIWMFMELVKRDI
B8: A10 (designed binder)
chain: MEEEKYLREQVKKYYEGKLSVVEAVEEVRKYARKKGLEAWKLIWAFMQLVKRDI
B9: A11 (designed binder)
chain: B2 chain with L7V, Q17G, E26V, I27E, A45M, D53N
B10: A12 (designed binder)
chain: B2 chain with E3P, L7V, H21Q, K41M
B11: A13 (designed binder)
chain: B1 chain with L7V, V43I, Y45H, E48Q
B12: A14 (designed binder)
chain: B7 chain with I28V, E37L, Y41K, M45A, D53Y
B13: B04 (designed binder)
chain: NLWQIFYLLNTIIKRTGDPTAKKLKKALREALKKGDEKAVKELAKKAMKYIRS
B14: B01 (designed binder)
chain: B13 chain with Q4M, K25L, R29Q, G35Y, V40I
B15: B02 (designed binder)
chain: B13 chain with L8I, L32T, V40M
B16: B05 (designed binder)
chain: B13 chain with Q4M, I13F, R29N, L32M, V40M, M48T
B17: B07 (designed binder)
chain: B13 chain with L8M, I13F, K25L, L32T, V40M, M48T
B18: B09 (designed binder)
chain: B13 chain with L8V, I13Y, K25P, G35N, V40T
B19: B12 (designed binder)
chain: B13 chain with L8V, I13Y, K25P, L32M, G35N, V40I
B20: B10 (designed binder)
chain: NLWVIFYVLNTIIKRTGDPTAKKLVKALQEAMKKWDEKATKELAKKATKYIRS
B21: B11 (designed binder)
chain: B20 chain with V4I, V8Q, V25I, M32N, T40L
B22: rA11dslf02A (designed binder)
chain: MEPEKFLKELCKAYYEGKLSQQEAVEEIRSYAMKWGLEAWMLIWYFMQCVKRDI
B23: rA11dslf02B (designed binder)
chain: MEPEEFLLELCKAYYEGKLSQIEAVEEIRHYARSFGLEAWQLIWYFMQCVKRDI
B24: rA11dslf02C (designed binder)
chain: B23 chain with M1P, E5K, L8S, H30S, F35W, Q41K
B25: rA11dslf02D (designed binder)
chain: PEPEKFLAELCKAYYEGKLSQPEAVEEIRSYARKWGLEAWKLVWYFMLCVKRDI
B26: rA11dslf02E (designed binder)
chain: B25 chain with K5Q, A8T, A13K, S30K, V43I, L48Q
B27: B0402SB (designed binder)
chain: QLWQIFYLLNTCIKRTGDPTCKKLIKALRECLKKGDAKACDELAKKAVKYIMS
B28: B0402SA (designed binder)
chain: B27 chain with Q1E, A37M
B29: B0402SC (designed binder)
chain: B27 chain with G17C, I25K, K45D
B30: A03 (designed binder)
chain: B8 chain with L7V, Q10L, V21Q, V22P, V28I
B31: A08 (designed binder)
chain: B1 chain with P3E, L7V, K10L, G17K, Y45A, D53N
B32: B03 (designed binder)
chain: B13 chain with L8I, I13H, K25P, L32M, V40M, M48L
B33: B06 (designed binder)
chain: B20 chain with V8L, I13H, V25I, Q29D, W35G, T48L
B34: A03dslf04 (designed binder)
chain: MEEEKCVRELCKKYYEGKLSQPEAVEEIRKCARKKGLEAWKLIWAFMQCVKRDIHHHHHH
notes: E. coli, purified
B35: A05dslf01 (designed binder)
chain: B34 chain with L10Q, G17K, E27I
notes: E. coli, purified
B36: A08dslf03 (designed binder)
chain: B34 chain with C6Y, G17K, C31Y, I43V, Q48E, D53N
notes: E. coli, purified

What follows are binders tested against T1, human IL-23R (hIL-23R), custom … (assay: yeast display FACS, combinatorial library).
Method: To further enhance affinity, we incorporated mutations previously shown to enhance binding in a combinatorial library that was then sorted for binding hIL-23R to convergence in 6 rounds. The final selection pools were plated on solid media, and individual clones sequenced. 26 unique combinatorial variants appearing in the final selection pool (SEQ ID NOS: 11-24 and 111-122) were selected for expression in E. coli and further biophysical characterization.
(§1) Yeast strain EBY100 was transformed with each library and vector by electroporation and grow in minimal media selective for the yeast strain (-ura) and the transforming plasmid (-trp).²⁷ Expression was induced with 2% galactose. Surface expression was detected with anti-Myc-FITC (Immunology Consultants Laboratory) conjugate, and binding to biotinylated IL-23R was detected with streptavidin-PE (Invitrogen).
Yeast were then washed with PBSF and incubated for 2-5 minutes with stain solution (1:100 each anti-Myc-FITC and streptavidin-PE), washed, and resuspended for analysis and selection by FACS. FACS consecutive gates were set as follows: (1) cell granularity and size, selecting for yeast cells (BSC vs. FSC); (2) cell morphology, selecting singlets (FSC-height vs. FSC-width); (3) expression, selecting expressors by proxy of the Myc-tag (FITC fluorescence histogram); and (4) binding signal, selecting the top 1-5% relative to total population (PE vs. FITC).

Binder	binding result
B1	binds
B2	binds
B3	binds
B4	binds
B5	binds
B6	binds
B7	binds
B8	binds
B9	binds
B10	binds
B11	binds
B12	binds
B13	binds
B14	binds
B15	binds
B16	binds
B17	binds
B18	binds
B19	binds
B20	binds
B21	binds

Each binder was assayed against T1, human IL-23R (hIL-23R), custom … (assay: yeast display FACS, SIF incubation then labeled hIL-23R, 5-7 rounds).
Method: Yeast libraries were first incubated in SIF at 30C, then washed thoroughly and incubated with labeled hIL-23R, and cells retaining the highest binding signal (top 1-5%) were collected by FACS. Two rounds of selection were performed for each library, and the SIF incubation time and/or concentration of proteases were increased from first to second round. […] Indeed in several libraries we saw a large population of Myc-negative, binding-positive cells. In parallel, we performed two rounds of selection for binding to hIL-23R only, without pre-incubation in SIF. […] Best mutations were included in combinatorial libraries, sorted as above for 5-7 rounds after which individual clones were sequenced. Variants present in the final sorts were expressed in E. coli and characterized (SEQ ID NOS: 70-74 and 153-164).
as §1
SIF SSM and combinatorial libraries were prepared as follows: after 16-24 hours induction, yeast were spun down, washed with PBSF, resuspended in SIF (recipe described below) at an OD of 2.0, and incubated at 30° C. shaking for 30-90 minutes as noted. After SIF digest, cells were spun down and washed 4 times with 800 uL PBSF, manually aspirating the supernatant each time to ensure complete washing to remove proteases. SIF-treated cells were then treated with target protein as described above.

Binder	binding result
B22	binds
B23	binds
B24	binds
B25	binds
B26	binds
B27	binds
B28	binds
B29	binds

These binders were tested against T1, human IL-23R (hIL-23R), custom … (assay: biolayer interferometry titration, biotinylated hIL-23R immobilised on streptavidin tips, 1:1 fit).
Method: Variants were first screened for relative binding to hIL-23R with biolayer interferometry (BLI). hIL-23R was immobilized on the BLI sensor tips and binding to each variant in solution at a constant concentration (50 nM) was measured to qualitatively determine relative performance of the variants. For the best-performing variants, binding constants (KD, including kₒₙ, and koff) were quantitatively determined with BLI titration experiments in triplicate.
Qualitative and quantitative assessment of binding affinity was performed using biolayer interferometry (ForteBio Octet™ […] and associated software for analysis). Enzymatically biotinylated target protein (30 nM) was immobilized on streptavidin-coated sensor tips, then sequentially dipped in wells with: buffer only (baseline), inhibitor in solution (association), and buffer only (dissociation). Kinetic constants were determined from the mathematical fit of a 1:1 binding model.

Binder	Kd [pM]	koff [s⁻¹]	kon [M⁻¹ s⁻¹]
B30	250	0.00024	980000
B31	370	0.00028	770000
B32	140	5.6e-05	400000
B33	320	0.00011	350000
B34	130	0.00034	2.6e+06
B35	460	0.00044	960000
B36	140	0.0002	1.5e+06
